From PMC4587348 (Archives of biochemistry and biophysics, 2015)

Experiments:
Lys206 = assay: kinetics; conditions: Steady-state turnover at saturating reactants (V/Et); cited from earlier work
Tyr150 = assay: kinetics; conditions: cited from earlier work
[1] = target: ScHIcDH (homoisocitrate dehydrogenase from Saccharomyces cerevisiae) (Saccharomyces cerevisiae, UniProt P40495, D271N); assay: initial rate, NADH formation at […] nm, dead-end inhibition; format: biochemical
Sequence of ScHIcDH (homoisocitrate dehydrogenase from Saccharomyces cerevisiae) (P40495 23-371 D271N): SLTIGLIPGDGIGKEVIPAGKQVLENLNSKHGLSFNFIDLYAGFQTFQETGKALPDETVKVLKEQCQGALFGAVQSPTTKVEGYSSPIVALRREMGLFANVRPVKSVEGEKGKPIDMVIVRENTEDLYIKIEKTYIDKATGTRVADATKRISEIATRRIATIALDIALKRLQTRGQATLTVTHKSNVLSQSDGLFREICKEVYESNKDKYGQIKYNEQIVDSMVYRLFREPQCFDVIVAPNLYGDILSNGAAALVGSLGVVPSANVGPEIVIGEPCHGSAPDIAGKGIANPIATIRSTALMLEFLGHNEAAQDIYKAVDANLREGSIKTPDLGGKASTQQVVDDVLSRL

## Homoisocitrate dehydrogenase (ScHIcDH) Y150F mutant (Saccharomyces cerevisiae; Y150F)
Lys206
  pKa: 6

## Homoisocitrate dehydrogenase (ScHIcDH) K206M mutant (Saccharomyces cerevisiae; K206M)
Tyr150; Steady-state turnover at saturating reactants (V/Et)
  pKa: 9.5

## CC(=O)c1ccc[n+]([C@@H]2O[C@H](COP(=O)([O-])OP(=O)(O)OC[C@H]3O[C@@H](n4cnc5c(N)ncnc54)[C@H](O)[C@@H]3OP(=O)(O)O)[C@@H](O)[C@H]2O)c1 [3-AcPyrADP]
[1]
  Ki: 0.34 ± 0.05 mM

## Homoisocitrate dehydrogenase (ScHIcDH) (Saccharomyces cerevisiae)
Tyr150; Steady-state turnover. V profile: enzyme saturated with NAD and MgHIc.
  pKa: 9.5

## O=C(O)CS[C@H](C(=O)O)[C@@H](O)C(=O)O [Thiahomoisocitrate]
[1]
  Ki: 20 ± 3 mM
